From PMC4122344, “Heterodimerization of p45–p75 Modulates p75 Signaling: Structural Basis and Mechanism of Action” (PLoS Biology, 2014)

T1: Flag-tagged human NgR (human, UniProt Q9BZR6 27-447)
T1 construct: Nogo-66 receptor (NgR), human; Printed both as Flag-hNgR and as NgR-Flag; also called Flag-hNgR; NgR-Flag; source: HEK293, transfected, in lysate
T1 sequence (looked up): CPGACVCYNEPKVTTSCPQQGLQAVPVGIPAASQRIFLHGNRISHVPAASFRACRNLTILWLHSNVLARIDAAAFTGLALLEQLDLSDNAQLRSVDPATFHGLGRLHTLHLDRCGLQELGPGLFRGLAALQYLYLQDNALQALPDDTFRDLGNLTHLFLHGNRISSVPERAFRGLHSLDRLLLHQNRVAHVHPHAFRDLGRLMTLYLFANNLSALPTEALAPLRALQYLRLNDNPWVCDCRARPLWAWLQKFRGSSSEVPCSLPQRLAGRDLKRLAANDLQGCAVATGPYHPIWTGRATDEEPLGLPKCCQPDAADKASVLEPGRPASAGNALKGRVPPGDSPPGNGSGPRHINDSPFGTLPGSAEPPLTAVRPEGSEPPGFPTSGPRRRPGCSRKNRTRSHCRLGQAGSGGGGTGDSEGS

T2: p75ICD (residues 290–418) (human, UniProt P08138 290-418)
T2 chain: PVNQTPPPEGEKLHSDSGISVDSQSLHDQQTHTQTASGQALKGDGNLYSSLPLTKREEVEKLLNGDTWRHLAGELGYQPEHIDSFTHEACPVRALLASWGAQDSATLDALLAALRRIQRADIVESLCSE


Experiments:
Flag-tagged human NgR = molecular target: T1, Flag-tagged human NgR; test: co-IP; HEK293 co-transfected with wild-type or mutant p75 and Flag-tagged NgR; p75 co-immunoprecipitated with NgR; blots quantified, wild type = 100%; conditions: partners not purified
[1] = molecular target: T2, p75ICD (residues 290–418); test: SEC; S200-Superdex gel filtration, 4 °C, PBS pH 8.0, 0.7 ml/min; p75ICD purified with or without DTT (or with iodoacetamide in the lysis buffer); conditions: both partners purified
[2] = molecular target: T2, p75ICD (residues 290–418); test: NMR titration; TROSY spectra of 15N-labelled p75ICD at different concentrations (10, 100, 500 µM) with DTT; 25 °C, PBS pH 8.0, 100 mM NaCl; monomer to dimer; conditions: both partners purified

percent co-immunoprecipitated with NgR (WT, 100%) (Flag-tagged human NgR) | stoichiometry N [1] | Kd [2] | Binder
61.8% | – | – | p75 D372R (full-length) (receptor, UniProt P07174 30-425, looked up, p75 neurotrophin receptor; source: HEK293, transfected, in lysate) KETCSTGLYTHSGECCKACNLGEGVAQPCGANQTVCEPCLDNVTFSDVVSATEPCKPCTECLGLQSMSAPCVEADDAVCRCAYGYYQDEETGHCEACSVCEVGSGLVFSCQDKQNTVCEECPEGTYSDEANHVDPCLPCTVCEDTERQLRECTPWADAECEEIPGRWIPRSTPPEGSDSTAPSTQEPEVPPEQDLVPSTVADMVTTVMGSSQPVVTRGTTDNLIPVYCSILAAVVVGLVAYIAFKRWNSCKQNKQGANSRPVNQTPPPEGEKLHSDSGISVDSQSLHDQQTHTQTASGQALKGDGNLYSSLPLTKREEVEKLLNGDTWRHLAGELGYQPEHIRSFTHEACPVRALLASWGAQDSATLDALLAALRRIQRADIVESLCSESTATSPV
125% | – | – | p75 H376E (full-length) (receptor, UniProt P07174 30-425, looked up, p75 neurotrophin receptor; source: HEK293, transfected, in lysate) KETCSTGLYTHSGECCKACNLGEGVAQPCGANQTVCEPCLDNVTFSDVVSATEPCKPCTECLGLQSMSAPCVEADDAVCRCAYGYYQDEETGHCEACSVCEVGSGLVFSCQDKQNTVCEECPEGTYSDEANHVDPCLPCTVCEDTERQLRECTPWADAECEEIPGRWIPRSTPPEGSDSTAPSTQEPEVPPEQDLVPSTVADMVTTVMGSSQPVVTRGTTDNLIPVYCSILAAVVVGLVAYIAFKRWNSCKQNKQGANSRPVNQTPPPEGEKLHSDSGISVDSQSLHDQQTHTQTASGQALKGDGNLYSSLPLTKREEVEKLLNGDTWRHLAGELGYQPEHIDSFTEEACPVRALLASWGAQDSATLDALLAALRRIQRADIVESLCSESTATSPV
17.7% | – | – | p75-C257A (full-length) (receptor, UniProt P07174 30-425, looked up, p75 neurotrophin receptor; also called p75 TM domain mutant; source: HEK293, transfected, in lysate) KETCSTGLYTHSGECCKACNLGEGVAQPCGANQTVCEPCLDNVTFSDVVSATEPCKPCTECLGLQSMSAPCVEADDAVCRCAYGYYQDEETGHCEACSVCEVGSGLVFSCQDKQNTVCEECPEGTYSDEANHVDPCLPCTVCEDTERQLRECTPWADAECEEIPGRWIPRSTPPEGSDSTAPSTQEPEVPPEQDLVPSTVADMVTTVMGSSQPVVTRGTTDNLIPVYASILAAVVVGLVAYIAFKRWNSCKQNKQGANSRPVNQTPPPEGEKLHSDSGISVDSQSLHDQQTHTQTASGQALKGDGNLYSSLPLTKREEVEKLLNGDTWRHLAGELGYQPEHIDSFTHEACPVRALLASWGAQDSATLDALLAALRRIQRADIVESLCSESTATSPV
27.4% | – | – | p75 E377R (full-length) (receptor, UniProt P07174 30-425, looked up, p75 neurotrophin receptor; source: HEK293, transfected, in lysate) KETCSTGLYTHSGECCKACNLGEGVAQPCGANQTVCEPCLDNVTFSDVVSATEPCKPCTECLGLQSMSAPCVEADDAVCRCAYGYYQDEETGHCEACSVCEVGSGLVFSCQDKQNTVCEECPEGTYSDEANHVDPCLPCTVCEDTERQLRECTPWADAECEEIPGRWIPRSTPPEGSDSTAPSTQEPEVPPEQDLVPSTVADMVTTVMGSSQPVVTRGTTDNLIPVYCSILAAVVVGLVAYIAFKRWNSCKQNKQGANSRPVNQTPPPEGEKLHSDSGISVDSQSLHDQQTHTQTASGQALKGDGNLYSSLPLTKREEVEKLLNGDTWRHLAGELGYQPEHIDSFTHRACPVRALLASWGAQDSATLDALLAALRRIQRADIVESLCSESTATSPV
– | 2 | ~100 µM | p75ICD (residues 290–418) (domain or fragment, Methods print 'human p75ICD', but all residue numbers (L360, E363, Q367, D372, H376, E377, C379, W388, R404) and the mapped structure 1NGR fit the rat precursor; human P08138 is offset by +2 in this …) PVNQTPPPEGEKLHSDSGISVDSQSLHDQQTHTQTASGQALKGDGNLYSSLPLTKREEVEKLLNGDTWRHLAGELGYQPEHIDSFTHEACPVRALLASWGAQDSATLDALLAALRRIQRADIVESLCSE
